Data as given in article PMC4753521.
pKd: −log10 of the molar value.

Legend:
[1] = target: TFIIH p62 subunit PH domain, 1-108 (UniProt P32780); assay: real-time NMR of complex during CK2 reaction; details: reference: complex before CK2 addition; sites S129
[2] = target: TFIIH p62 PH (Homo sapiens) (UniProt P32780); assay: ITC; details: cited from earlier work
[3] = target: TFIIH p62 PH (Homo sapiens) (UniProt P32780); assay: ITC; details: cited from earlier work; remark: listed apart in the source
[4] = target: TFIIH p62 PH (Homo sapiens) (UniProt P32780); assay: ITC; details: cited from earlier work; remark: listed apart in the source
[5] = target: TFIIH p62 subunit PH domain, 1-108 (UniProt P32780); assay: real-time NMR of complex during GRK5 reaction; details: reference: complex before GRK5 addition; sites T55
[6] = target: TFIIH p62 subunit PH domain, 1-108 (UniProt P32780); assay: real-time NMR of complex during JNK2α2 reaction; details: reference: Thr55-phosphorylated complex before JNK2α2; sites S46

XPC AF, 109-156 (from UniProt Q01831) complex after CK2 reaction
binding against the reference [1]: stronger

p53 TAD2 (from UniProt P04637)
pKd [2]: 6.00 | pKd [3]: 5.30 | pKd [4]: 5.22

p53 TAD, 1-73 (from UniProt P04637) complex after GRK5 reaction
binding against the reference [5]: stronger

p53 TAD, 1-73 (from UniProt P04637) same complex after JNK2α2 reaction
binding against the reference [6]: stronger
